# Experimental data from the supplement of paper PMC12042874.
# ± gives the uncertainty stated by the source.
# Test: amyloid nucleation score (Sup35N fusion, yeast selection) (log enrichment); library NNK2; higher = more nucleation; inactive = no reads after selection
# Method in brief: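 On medium lacking adenine and uracil, psi-negative yeast expressing peptides of 20 random codons fused to Sup35N were grown 7 days at 30°C after a 24-hour induction with 100 μM copper sulfate. Illumina sequencing of input and output plasmid inserts gave the reads, and sequences under 100 input reads were excluded. The nucleation score is the DiMSum log enrichment of output over input reads, centred on the mode score of non-aggregating sequences.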
row,Substance,amyloid nucleation score
1,WIARC,-0.149 ± 0.42
2,WIDGVFTIVSFYMELEGIRV,inactive
3,WIHMSFGRLNRYMVRMRGRM,-0.71 ± 1
4,WILYLRMNYWKRTCYHAIGM,-0.214 ± 0.22
5,WINLSRFFSLGKFRIAIRYY,-1.04 ± 1.1
6,WIVSGKLTTTFSLRR,5.15 ± 0.058
7,WKVCLVYDKTFWHVEVEGES,0.042 ± 0.8
8,WLFDGGFSVKWPDRVSLARV,-1.14 ± 1
9,WLKVLG,4.571 ± 0.028
10,WLLWNSECIANCAFTRYSMF,-0.079 ± 0.33
11,WLMGVRG,-1.01 ± 0.64
12,WLNYLGFISFRICH,-1.66 ± 0.41
13,WLTSS,-0.173 ± 0.54
14,WLVRLVIGGFTQSGMWLTEI,1.06 ± 0.16
15,WLYCVVTS,1.63 ± 0.42
16,WLYSIDYNFLKRVIGYCYRN,inactive
17,WMSMKFCFIFLPFYKSSVCM,1.91 ± 0.18
18,WNKLSLA,0.443 ± 0.49
19,WNMMPRASEQFYYRL,inactive
20,WNVWVYLAAAVSGGGPTCVS,4.72 ± 0.076
21,WPRFTCCPTYYICIAQSPGQ,9.807 ± 0.035
22,WPTSSTYQHWFD,0.606 ± 0.41
23,WPVGLFKSGAISAV,-0.475 ± 0.55
24,WPYRMMR,0.554 ± 0.74
25,WRGSLTSPAPGET,1.87 ± 0.17

row,Substance,amyloid nucleation score
1,WRPLWSRAIFGS,inactive
2,WSCQESIVRSRDDYSRFRCG,3.42 ± 0.13
3,WSFHRR,-0.552 ± 0.36
4,WSKVMCQWFSDIYSVTNFGC,2.76 ± 0.085
5,WSLDSYSMTAVF,-0.467 ± 0.39
6,WSLKKLITDRFGSSCSAALH,inactive
7,WSNGR,0.329 ± 0.44
8,WSYLVLSPMRRNRVRMVHII,-0.517 ± 0.63
9,WSYQYRLPILTTFSDFVWRK,-0.339 ± 0.28
10,WTGHMPMSLVHLMIGWHGHY,0.637 ± 0.62
11,WTGSFRMSRQHMWNSTSFQM,-0.215 ± 0.5
12,WTNVYAIVFR,4.65 ± 0.044
13,WTRCPQSRYHVLVRVYSYWA,0.193 ± 0.27
14,WVCHVNMRSEYMDIIMEGTN,inactive
15,WVCSFHYAEYSLRVIAARFP,0.081 ± 0.8
16,WVGYLRPKKESLCLGFEDSK,3.04 ± 0.12
17,WVIVRLIITTDVQCNYVFLP,0.248 ± 0.38
18,WVSRTNELFGPDRLWIDLWH,-0.01 ± 1
19,WVTTNMCYTHQFMFGANLVV,0.276 ± 1
20,WVYDVQSCIMTPMSGYWFIL,-0.476 ± 0.36
21,WVYKWIWRLFDGFHHQLMLS,inactive
22,WWFYAYVYWRW,-0.403 ± 0.43
23,WWGGINSVLVTDEWLVRLGK,-0.166 ± 0.19
24,WWLSGA,0.898 ± 0.35
25,WWNEYSH,-1.01 ± 0.39

row,Substance,amyloid nucleation score
1,WYAAGLKNR,-0.418 ± 1
2,WYALARCYCDGPFSGGWFRM,-0.022 ± 0.27
3,WYIKF,1.54 ± 0.3
4,WYKVDFNAWLFCKTIAHIFA,-1.1 ± 0.45
5,WYSMISLSRTNIYRMFYVPV,-0.453 ± 0.53
6,WYSSGMTGIIRRVDKWCAFS,-0.939 ± 0.45
7,WYSVLSFDSFFWPWALLVVY,-1.16 ± 0.49
8,YAFHSSWYADRSALLQLN,0.434 ± 0.3
9,YAFQGHGNFETGSYPEVLAA,0.098 ± 0.49
10,YAIDRRKSL,inactive
11,YAIFYGRLNMCGSGLSVPRE,0.381 ± 0.62
12,YALRLLHGSYNSNT,3.31 ± 0.084
13,YANVA,-1.65 ± 0.75
14,YARGNFKSLCCPMV,-0.927 ± 0.78
15,YASISI,inactive
16,YCAFSMYMFKGIIRYAICVV,-1.25 ± 0.38
17,YCGGFGGFWVEYWWDKYPTC,-0.171 ± 0.23
18,YCGRWELAVWY,-0.679 ± 1.1
19,YCGVSLFSINTYSY,6.94 ± 0.05
20,YCHLVV,2.04 ± 0.087
21,YCHPFVRHRLKLCTDACY,-0.174 ± 0.31
22,YCHPILMRYKPVYTCHYSLM,4.86 ± 0.053
23,YCKQNESVLDPSIDSLRVLP,0.673 ± 0.26
24,YCSLLL,4.79 ± 0.074
25,YCTGPVIWPWHKGLLSWYAW,1.19 ± 0.57

row,Substance,amyloid nucleation score
1,YCYKSCCRDKLY,-0.072 ± 1.1
2,YDGSVKMGVFCGVRVYAPVS,-0.191 ± 1.1
3,YDLSLVWWSTMFFRLCSLGC,-0.601 ± 0.41
4,YDQSICLVRNVIAIYDMGSV,6.81 ± 0.084
5,YDVRLFKLTTTSFAIVLSEW,0.823 ± 0.21
6,YEGPWQLIVVSTISVFTNSC,-0.156 ± 0.38
7,YELNSLMKMSYAEQFPKTWA,0.447 ± 0.46
8,YEPRSNLCCIINTIKFPKTI,6.169 ± 0.031
9,YETCSFKNPTFFPRNLYKMW,-0.103 ± 0.46
10,YEVHDDLYYTNKLRTRANGV,1.46 ± 0.43
11,YEVTRRVSWAFDRMYCRVNR,0.101 ± 0.55
12,YFCRMMCLNRWIGRLLFRCN,0.775 ± 0.62
13,YFGGFAKRQSTLPATRKYRL,1.34 ± 0.52
14,YFGSIIIYRIPAVPQILSVN,inactive
15,YFIGFSSSMNFGYFMRVYRI,inactive
16,YFNPI,5.196 ± 0.047
17,YFNRIYYTDIYNMVALVICF,4.4 ± 0.12
18,YFSDLDAL,inactive
19,YFSGCSSFVS,-0.046 ± 0.49
20,YFTNFWLLCLLSG,4.34 ± 0.079
21,YFWDQGLHPVSFRESTYDLV,-0.243 ± 1.1
22,YGGDVSP,0.1 ± 0.4
23,YGHFWDFGVPIASSISYKKG,-0.029 ± 0.79
24,YGIRYYICKFMLKSFICSWY,-1.33 ± 1.1
25,YGLGKTVFTTDGPGMLNGQA,1.18 ± 0.47

row,Substance,amyloid nucleation score
1,YGPLTIDGFRHAYV,0.95 ± 0.29
2,YGRCVDLFCGIRYLHGSRLA,-0.299 ± 1.1
3,YGRGWHCTLYCIN,0.008 ± 0.8
4,YGTCFS,0.191 ± 0.47
5,YGWFFVYDEVLLFISYSNVV,inactive
6,YGYKMVTSYVGFL,0.753 ± 0.81
7,YGYSIYLFTGCVKTVLFVSD,4.68 ± 0.048
8,YHCPVSW,-0.254 ± 0.32
9,YHEVFLTLSIEWRMMLWVG,-0.318 ± 0.28
10,YHGYLPD,-0.826 ± 0.63
11,YHKAIFFGF,-0.563 ± 0.64
12,YHLLGALYNDAWVIWETTVL,-0.116 ± 0.76
13,YHSTTLTFERAQPSHNNTRL,3.32 ± 0.1
14,YHVVVMRSVYTVLTYNRVGA,0.334 ± 0.65
15,YHYNNNRWVTGHFQWIWSLY,6.453 ± 0.029
16,YIIFGSRLVDRGSLQ,2.95 ± 0.16
17,YIIIYLTRHTGVRDVYVSGG,-0.79 ± 1
18,YIISYFLKMGSQ,4.95 ± 0.092
19,YILRMLLRVLSVCVCSLQRS,-0.091 ± 0.79
20,YILRSANLM,-0.406 ± 0.3
21,YIMTYDYVCKNVGWYFTRC,inactive
22,YIPARSRMGYVAQKLGTTRL,-0.025 ± 0.61
23,YIPLVVLHFSVRVWELSYWS,0.115 ± 1
24,YISFVGW,-2.23 ± 0.62
25,YISGQWCLMCRRRGISACVR,-0.182 ± 0.55

row,Substance,amyloid nucleation score
1,YISRILYHNGKSDRDGQRDY,-0.119 ± 0.65
2,YISVCSYCH,4.9 ± 0.056
3,YITAGFKESTSGQRQLRSWL,2.08 ± 0.083
4,YIVLCYSFRFVFF,inactive
5,YKCRDLFGGRQINREHYLCY,-1.26 ± 0.62
6,YKISDRVALISYPNFAIVWT,-2.25 ± 0.78
7,YKMPK,0.443 ± 0.8
8,YKSDYSKLLCWKNYKFWLVC,-1.07 ± 0.37
9,YLASNLEDKWVWDGFMLVSR,0.356 ± 0.74
10,YLDTHWIYY,0.056 ± 0.63
11,YLFKPSPTSHYCAFCTVYRN,3.84 ± 0.079
12,YLGLPLQDLRRVIMSEHVLV,0.779 ± 0.37
13,YLGTDGFNDGLVGLTTNIMS,-0.798 ± 0.47
14,YLHHIRCGYWVVVFVSTGSA,-0.252 ± 0.41
15,YLIPFMYAKCLSWVILRK,0.029 ± 0.23
16,YLLGKSYF,-1.08 ± 0.36
17,YLLRYYGGSFNHLMCWFRSP,2.6 ± 0.06
18,YLLSNWTNKVSWFLCVRPQS,2.23 ± 0.12
19,YLLYYNKWGLIK,inactive
20,YLNCDSFMRSVVYFNLWDIG,-1.57 ± 0.75
21,YLPRRSGRLRPGMRNNMPFR,0.12 ± 0.28
22,YLRFYRSIINILIKGSAFCV,-1.49 ± 1.1
23,YLRRGNKLCESTLVVTCTMV,-0.087 ± 1
24,YLRRL,-0.775 ± 0.61
25,YLTEALPDRSRYRSTSVMCV,1.86 ± 0.32

row,Substance,amyloid nucleation score
1,YLVNNNFFVTIVILVWRTGV,1.39 ± 0.18
2,YMCCFYAVGFPFDYKLGFVR,4.35 ± 0.068
3,YMDNCSYRYSVTESTRNTAG,0.17 ± 0.74
4,YMHILLLRFVQILTIRIVLL,-0.85 ± 0.37
5,YMKNSGHDMASLRNIYLIFR,5.15 ± 0.075
6,YMLINAMVTFFMHGVDRKRR,5.516 ± 0.055
7,YMLLRSYVFTKLLRLHCYRN,inactive
8,YMLNHVIQNMSSWCEVT,-0.103 ± 0.34
9,YMRVLGVDGHIRCVWLD,inactive
10,YMRVLYIRRLWIHFL,1.92 ± 0.18
11,YMYGVNNASSF,5.79 ± 0.054
12,YMYILAVLSVSSLIVNYDLK,inactive
13,YNFLWWSMKDT,inactive
14,YNKGWR,inactive
15,YNMGNSGLGGTRWEIICFAI,-1.02 ± 0.5
16,YNPSYLMELNEV,-0.376 ± 0.55
17,YNRLMVGRPRLQHLSL,-1.51 ± 0.39
18,YNTQVCEVVMWGQHPTTLSS,-0.418 ± 0.41
19,YNWVNTPGHVNL,-1.4 ± 0.62
20,YNYLCWNRKKGANRTCVSGR,-0.502 ± 0.44
21,YPFILVVTIEYACLVRRLGV,-0.309 ± 0.23
22,YPGWPMKTVQ,3.97 ± 0.05
23,YPRALIHVWKKSLVHTSRCR,7.14 ± 0.079
